Four molecules from patent US20230070752A1 (KOREA ADVANCED INSTITUTE OF SCIENCE AND TECHNOLOGY, published 2023) can be followed below.

Usually Kd stands for the constant that tells how readily two partners part at equilibrium. Higher therefore signals a looser complex. Broadly, the kon is the rate constant with which the complex forms. By koff is commonly meant the first-order rate constant of dissociation. Read a high koff as fast dissociation.

The target of test [1] is T1, IL10Rβ (UniProt Q08334 20-220, limits assumed).
T1 construct: Soluble protein used at 500, 1000 and 2000 nM in BLI; also called IL10RB; interleukin-10 receptor beta
T1 sequence (looked up): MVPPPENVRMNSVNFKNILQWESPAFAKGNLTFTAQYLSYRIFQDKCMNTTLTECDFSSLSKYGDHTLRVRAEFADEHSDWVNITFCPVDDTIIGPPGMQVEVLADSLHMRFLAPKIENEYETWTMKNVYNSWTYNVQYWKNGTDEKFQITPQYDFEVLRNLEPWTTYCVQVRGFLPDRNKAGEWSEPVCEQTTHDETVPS
Briefly: BLI (BLItz), biotinylated IFNλ4 on streptavidin sensor, IL10Rβ in solution at 500-2000 nM, 1:1 global fit. How it is done: (§1) Sensorgrams were obtained from BLItz instrument. Data points are shown in grey and the corresponding fits are shown in red (IFNλR1) and blue (IL10Rβ). KD values were calculated from 1:1 global fitting.
(§2) The binding kinetics of the IFNλ4 variant to IFNλR1 and IL10Rβ were measured using biolayer light interferometry (BLI) in a BLItz system (ForteBio, Pall Life Sciences). The mixture was stirred in a washing buffer (200 mM NaCl, 20 mM Tris-HCl pH 8, 5% glycerol, 0.01% Tween-20) at 2,200 rpm. Analysis was performed at room temperature. 0.25 mg/ml of biotinylated IFNλ4 was loaded on the surface of the streptavidin biosensor (ForteBio) for 1 minute, and then the loaded biosensor was washed with a washing buffer (200 mM NaCl, 20 mM Tris-HCl pH 8, 5% glycerol, 0.01% Tween-20) for 2 minutes to remove unbound protein. The biosensor tip was immersed in drops containing the indicated concentrations of IFNλR1 and IL10Rβ (500, 1000 and 2000 nM). Associations (on rate, kon) were measured at intervals of 2 minutes. Subsequently, the sensor was immersed in the washing buffer for 2 minutes to measure dissociations (off-rate koff). KD measured in nanomoles was calculated as a ratio of […]. The resulting data was analyzed by fitting to a 1:1 ligand model using the entire global fitting function.
(§3) To investigate whether the mutation and the additional glycan on IFNλ4 variants affect their binding to their receptors, IL10Rβ and IFNλR1, in-vitro binding affinity of the IFNλ4 variants to IL10Rβ and IFNλR1 was evaluated using biolayer light interferometry (BLI) and then compared with that of wild-type IFNλ4 (eIFNλ4) purified from E. coli. Similar to eIFNλ4, the three IFNλ4 variants appropriately bound to the receptor, and the binding affinity for IFNλR1 was higher than the binding affinity for IL10Rβ (FIG. 4).

Test [2] concerns the target T2, IFNλR1 (UniProt Q8IU57 21-228, limits assumed).
T2 construct: Soluble protein used at 500, 1000 and 2000 nM in BLI; also called IFNLR1; interferon lambda receptor 1
T2 sequence (looked up): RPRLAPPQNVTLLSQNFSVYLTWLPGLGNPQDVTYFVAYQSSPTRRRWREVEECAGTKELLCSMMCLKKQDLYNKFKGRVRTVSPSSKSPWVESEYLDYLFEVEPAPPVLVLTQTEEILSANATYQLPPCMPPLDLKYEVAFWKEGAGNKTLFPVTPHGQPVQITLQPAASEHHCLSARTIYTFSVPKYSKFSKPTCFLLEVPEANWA
Briefly: BLI (BLItz), biotinylated eIFNλ4 immobilized on streptavidin biosensor, IFNλR1 as analyte (500, 1000, 2000 nM), 1:1 global fit. How it is done: as §1, §2

Test [3] addresses T1, IL10Rβ. Briefly: BLI (BLItz), biotinylated eIFNλ4 immobilized on streptavidin biosensor, IL10Rβ as analyte (500, 1000, 2000 nM), 1:1 global fit; column head k dis. The protocol: as §1, §2
For test [4], the target named is T2, IFNλR1. Briefly: BLI (BLItz), biotinylated eIFNλ4 immobilized on streptavidin biosensor, IFNλR1 as analyte (500, 1000, 2000 nM), 1:1 global fit; column head k dis. The protocol:
as §1, §2

Test [5] concerns the target T2, IFNλR1. Put plainly: BLI (BLItz), biotinylated IFNλ4 on streptavidin sensor, IFNλR1 in solution at 500-2000 nM, 1:1 global fit. The protocol:
as §1, §2, §3

Test [6] concerns the target T1, IL10Rβ. Briefly: BLI (BLItz), biotinylated eIFNλ4 immobilized on streptavidin biosensor, IL10Rβ as analyte (500, 1000, 2000 nM), 1:1 global fit. How it is done:
as §1, §2

Test [7] has as its target T2, IFNλR1. Briefly: BLI (BLItz), biotinylated IFNλ4 variant immobilized on streptavidin biosensor, IFNλR1 as analyte (500, 1000, 2000 nM), 1:1 global fit. How it is done: as §1, §2
In test [8] the target is T1, IL10Rβ. Briefly: BLI (BLItz), biotinylated IFNλ4 variant immobilized on streptavidin biosensor, IL10Rβ as analyte (500, 1000, 2000 nM), 1:1 global fit. The protocol:
as §1, §2

Test [9] concerns the target T1, IL10Rβ. Put plainly: BLI (BLItz), biotinylated IFNλ4 variant immobilized on streptavidin biosensor, IL10Rβ as analyte (500, 1000, 2000 nM), 1:1 global fit; column head k dis. How it is done: as §1, §2
In test [10] the target is T2, IFNλR1. Put plainly: BLI (BLItz), biotinylated IFNλ4 variant immobilized on streptavidin biosensor, IFNλR1 as analyte (500, 1000, 2000 nM), 1:1 global fit; column head k dis. The protocol:
as §1, §2

B1: eIFNλ4 (wild-type IFNλ4 produced in E. coli, R&D Systems 9165-IL) (ligand)
chain: MAPRRCLLSHYRSLEPRTLAAAKALRDRYEEEALSWGQRNCSFRPRRDPPRPSSCARLRHVARGIADAQAVLSGLHRSELLPGAGPILELLAAAGRDVAACLELARPGSSRKVPGAQKRRHKPRRADSPRCRKASVVFNLLRLLTWELRLAAHSGPCL
modifications: not glycosylated (E. coli); biotinylated for BLI
notes: Bought as protein and used as the wild-type control; also called eIFNL4; control wild-type IFNλ4
Take B1: the Kd with IL10Rβ [1] is 71 nM; with IFNλR1 [5] it was 19 nM. Besides, the kon in the test with IFNλR1 [2] was found to be 21300 M⁻¹ s⁻¹; with IL10Rβ [6] it was 28800 M⁻¹ s⁻¹. In addition, the figures for the off-rate (koff) with IL10Rβ [3] and with IFNλR1 [4] were 0.00203 s⁻¹ and 0.000397 s⁻¹, respectively.

B2: M7 (L28N+P73N) IFNλ4 variant (ligand)
chain: AAPRRCNLSHYRSLEPRTLAAAKALRDRYEEEALSWGQRNCSFRPRRDPPRNSSCARLRHVARGIADAQAVLSGLHRSELLPGAGPILELLAAAGRDVAACLELARPGSSRKVPGAQKRRHKPRRADSPRCRKASVVFNLLRLLTWELRLAAHSGPCL
modifications: N-glycans at Asn61 and at P73N (Asn73); L28N not glycosylated; biotinylated for BLI
notes: Secreted from Expi293F cells as a C-terminal Protein A fusion; Protein A was removed by thrombin at an LVPRGS site; Monomer by SDS-PAGE; also called double mutant
Take B2: the kon was found to be 58300 M⁻¹ s⁻¹ with IFNλR1 [7] and 26200 M⁻¹ s⁻¹ with IL10Rβ [8]. Moreover, the Kd with IL10Rβ [1] was 49 nM; with IFNλR1 [5] it was 17 nM. Further, the off-rate constant (koff) with IL10Rβ [9] amounted to 0.00129 s⁻¹; with IFNλR1 [10], 0.000967 s⁻¹.

B3: M1 (L28N) IFNλ4 variant (ligand)
chain: AAPRRCNLSHYRSLEPRTLAAAKALRDRYEEEALSWGQRNCSFRPRRDPPRPSSCARLRHVARGIADAQAVLSGLHRSELLPGAGPILELLAAAGRDVAACLELARPGSSRKVPGAQKRRHKPRRADSPRCRKASVVFNLLRLLTWELRLAAHSGPCL
modifications: N-glycan at Asn61 (L28N not glycosylated); biotinylated for BLI
notes: Secreted from Expi293F cells as a C-terminal Protein A fusion; Protein A was removed by thrombin at an LVPRGS site; Monomer by SDS-PAGE; also called L28N (M1)
B3: the kon with IFNλR1 [7] worked out at 50200 M⁻¹ s⁻¹; with IL10Rβ [8], 21300 M⁻¹ s⁻¹. Further, the results for the dissociation constant (Kd) in the test with IL10Rβ [1] and with IFNλR1 [5] were 49 nM and 14 nM, respectively. The koff came out at 0.00104 s⁻¹ with IL10Rβ [9] and 0.000686 s⁻¹ with IFNλR1 [10].

B4: M3 (P73N) IFNλ4 variant (ligand)
chain: AAPRRCLLSHYRSLEPRTLAAAKALRDRYEEEALSWGQRNCSFRPRRDPPRNSSCARLRHVARGIADAQAVLSGLHRSELLPGAGPILELLAAAGRDVAACLELARPGSSRKVPGAQKRRHKPRRADSPRCRKASVVFNLLRLLTWELRLAAHSGPCL
modifications: N-glycans at Asn61 and at P73N (Asn73); biotinylated for BLI
notes: Secreted from Expi293F cells as a C-terminal Protein A fusion; Protein A was removed by thrombin at an LVPRGS site; Monomer by SDS-PAGE; also called P73N (M3)
Consider B4, for which the values for the on-rate constant (kon) with IFNλR1 [7] and with IL10Rβ [8] were 29200 M⁻¹ s⁻¹ and 29100 M⁻¹ s⁻¹, respectively. The values for the equilibrium dissociation constant (Kd) with IL10Rβ [1] and in the test with IFNλR1 [5] were 51 nM and 22 nM, respectively. The koff amounted to 0.00148 s⁻¹ with IL10Rβ [9] and 0.000647 s⁻¹ with IFNλR1 [10].
